Assay results from patent US20220372154A1 (APEXIGEN, published 2022).
Positions count from the first letter of the chain named. Each block holds one binder with its values, some of them ahead of it.

Legend:
[1] = target: T1, cynomolgus TNFR2-His tagged protein (cynomolgus, UniProt A0A2K5VET2 132-366); assay: ELISA on coated cynomolgus TNFR2-His
T1 construct: also called Cyno TNFR2; cynomolgus TNFR2 protein; not shown: His tag
T1 sequence: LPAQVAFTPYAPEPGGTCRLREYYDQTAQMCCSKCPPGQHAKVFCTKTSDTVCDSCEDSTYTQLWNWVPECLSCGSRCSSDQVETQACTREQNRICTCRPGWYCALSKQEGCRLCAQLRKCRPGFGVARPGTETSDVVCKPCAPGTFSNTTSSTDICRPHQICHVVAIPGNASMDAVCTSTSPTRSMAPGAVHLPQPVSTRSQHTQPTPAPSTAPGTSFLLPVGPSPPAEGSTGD
Procedure: (§1) In FIGS. 3A-3B, human (3A) or cynomolgus (3B) TNFR2-His tagged protein was coated on 96-well ELISA plates at 1 μg/mL and incubated overnight at 4° C. Plates were washed and blocked using 1% BSA. Antibodies were added for 1 hour at room temperature (RT), washed, and detected using anti-Human HRP. Assay was developed using TMB substrate for 3-5 minutes. In FIG. 3C, FACS binding was performed on CHO cells that were engineered to express human TNFR2. Briefly, antibodies were incubated with 200,000 cells in MACS buffer for 1 hour followed by wash and detection using anti-human IgG BV421 for 20 minutes. Samples were analyzed using Cytoflex or MACSQuant flow cytometers. In FIG. 3D, ligand blocking ELISA was performed by coating plates with 1 ug/mL TNFR-Fc overnight at 4° C. Plates were washed, blocked and antibodies were incubated for 1 hr at RT. […] Assay was developed using TMB substrate for 5-7 minutes.

[2] = target: T2, human TNFR2 expressed on cells (human, UniProt P20333 23-461); assay: flow cytometry on CHO cells expressing human TNFR2
T2 construct: whole, on cells; also called hTNFR2 (cell); CHO-TNFR2
T2 sequence (looked up): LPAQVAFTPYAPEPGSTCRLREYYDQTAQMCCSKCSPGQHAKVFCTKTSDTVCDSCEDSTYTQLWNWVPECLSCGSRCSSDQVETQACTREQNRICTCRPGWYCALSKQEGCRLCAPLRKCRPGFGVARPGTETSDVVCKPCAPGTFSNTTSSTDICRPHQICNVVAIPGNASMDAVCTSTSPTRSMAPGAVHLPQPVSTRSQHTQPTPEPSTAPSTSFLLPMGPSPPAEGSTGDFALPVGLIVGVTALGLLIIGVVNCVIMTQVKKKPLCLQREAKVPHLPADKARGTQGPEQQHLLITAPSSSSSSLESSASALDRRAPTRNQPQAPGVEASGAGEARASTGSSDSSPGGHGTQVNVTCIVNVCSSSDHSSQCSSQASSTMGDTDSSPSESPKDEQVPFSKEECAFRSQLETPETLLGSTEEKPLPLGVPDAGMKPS
Procedure: as §1

soluble mouse TNFR2 = target: T3, soluble mouse TNFR2 (mouse, UniProt P25119 23-258, limits assumed); assay: binding screen on soluble mouse TNFR2 (mouse cross-reactivity)
T3 sequence (looked up): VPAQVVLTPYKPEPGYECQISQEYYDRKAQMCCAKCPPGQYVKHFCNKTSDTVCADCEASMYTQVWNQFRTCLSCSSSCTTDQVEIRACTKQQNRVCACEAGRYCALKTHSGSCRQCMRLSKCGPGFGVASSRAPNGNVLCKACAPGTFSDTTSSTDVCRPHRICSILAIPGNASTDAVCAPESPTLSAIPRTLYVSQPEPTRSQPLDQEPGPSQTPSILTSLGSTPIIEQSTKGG

TNFR-Fc = target: T4, TNFR-Fc (UniProt P20333 23-257, limits assumed); assay: TNF-α blocking ELISA on coated TNFR-Fc
T4 construct: Printed only as TNFR-Fc; not shown: Fc part
T4 sequence (looked up): T1 sequence with G16S, P36S, Q117P, H164N, A210E, G216S, V223M
Procedure: as §1

[3] = target: T5, human TNFR2-His tagged protein (soluble) (human, UniProt P20333 23-257); assay: ELISA on coated human TNFR2-His
T5 construct: also called hTNFR2 (soluble); soluble TNFR2-His; not shown: His tag
T5 sequence (looked up): T1 sequence with G16S, P36S, Q117P, H164N, A210E, G216S, V223M
Procedure: as §1

[4] = target: T1, cynomolgus TNFR2-His tagged protein; assay: ELISA, cynomolgus TNFR2
[5] = target: T5, human TNFR2-His tagged protein (soluble); assay: ELISA, soluble human TNFR2
[6] = target: T2, human TNFR2 expressed on cells; assay: flow cytometry, cell-expressed human TNFR2
[7] = target: T2, human TNFR2 expressed on cells; assay: cell binding on TNFR2-overexpressing (OE) cells

B2: chimeric antibody clone 92 (rab600_25_92) (antibody, V domains shown)
VH: QSVEESGGRLVKPDETLTLICTVSGFSLSSHHMIWVRQAPGEGLEGIGIIDAGSGSTYYASWAKGRFTISRTSTTVDLKIASPTTEDTATYFCARGGLTESLGTYFDLWGPGTLVTVSS
VL: DIVMTQTPASVEAAVGGTVTIKCQASESIDSGLAWYQQKPGQRPKLLIYDSSTLASGVPSRFKGSGSGTDFTLTISDLECADAATYYCQSNYDTGSSVYDWGSFGGGTEVVVK
- EC50 [1]: 0.191 nM
- EC50 [2]: 0.086 nM
- binding result (soluble mouse TNFR2): no binding
- IC50 (TNFR-Fc): 3.06 nM
- EC50 [3]: 0.131 nM

B5: humanized antibody clone 25-10 (h600_24_10) (antibody, V domains shown)
VH: EVQLLESGGGLVQPGGSLRLSCAASGIDLSRYAMAWVRQAPGKGLEWVGYIDTGDSTYYATWAKGRFTISRDNSKNTLYLQMNSLRAEDTAVYYCTNVGVRMYLWGQGTLVTVSS
VL: DIQMTQSPSSLSASVGDRVTITCQASQSISSYLSWYQQKPGKAPKLLIYRASTLESGVPSRFSGSGSGTDFTLTISSLQPEDFATYYCQCGYYGGSYIGAFGGGTKVEIK
notes: its CDRs are those of rab600_25_10
- EC50 [4]: 0.113 nM
- EC50 [5]: 0.053 nM
- Kd [7]: 1.05 nM
- EC50 [6]: 1.38 nM

B6: humanized antibody clone 25-103 (h600_24_103) (antibody, V domains shown)
VH: B5 VH with L5V, R31S, A35G, Y50F, D55G, T61N, T96A, V100A
VL: B5 VL with S31N, Y32L, S34A, G91S
notes: its CDRs are those of rab600_25_103
- EC50 [4]: 0.107 nM
- EC50 [5]: 0.097 nM
- Kd [7]: 0.468 nM
- EC50 [6]: 0.57 nM

B10: chimeric antibody clone 42 (rab600_25_42) (antibody, V domains shown)
VH: QSLEESGGRLVTPGTPLTLTCTVSGIDLSTYAMIWVRQAPGKGLEYIGFIRPGGSAWYASWAKGRFTISKTSTTVDREITSPTTEDTATYFCATYDTYGYGDTRLWGPGTLVTVSS
VL: AYDMTQTPASVEVAVGGTVTIKCQASESIFSYLAWYQQKPGQRPKLLIYYASTLASGVPSRFKGSGSGTQFTLTISGVECADAATYYCQQGYDFSAVDNVFGGGTEVVVK
- EC50 [1]: 0.184 nM
- EC50 [2]: 0.091 nM
- binding result (soluble mouse TNFR2): no binding
- IC50 (TNFR-Fc): 11.2 nM
- EC50 [3]: 0.242 nM

B11: chimeric antibody clone 102 (rab600_23_102) (antibody, V domains shown)
VH: QSVEESGGRLVTPGTPLTLTCTASGFSLSTYDMIWVRQAPGKGLEWIGYIWSDGITDYASWAKGRFTISKTSTTVDLKVTSPTTEDTATYFCARDVGYAGYGYYFDLWGQGTLVTVSS
VL: ALVMTQTPASVEVAVGGTVTIKCQASQSITNYLAWYRQKPGQPPKLLIYGASKLASGVPSRFSGSGSGTEYTLTISGVQCDDAATYYCQQGYTSSNVDNPFGGGTEVVVK
- EC50 [1]: 0.327 nM
- EC50 [2]: 0.0901 nM
- binding result (soluble mouse TNFR2): no binding
- IC50 (TNFR-Fc): 100 nM
- EC50 [3]: 0.207 nM

The remaining lines, values ahead:

- EC50 [1]: 60 nM
- EC50 [2]: 0.11 nM
- binding result (soluble mouse TNFR2): no binding
- IC50 (TNFR-Fc): 6.62 nM
- EC50 [3]: 0.313 nM
B1: chimeric antibody clone 127 (rab600_23_127) (antibody, V domains shown)
VH: QEQLEESGGDLVKPEGSLTLTCTASGFDFSVNAMCWVRQAPGKGPEWIAYISNADGSTHYASWVNGRFTISRSTSLNTVTLQMTRLTVSDTATYFCARAPYAGYTGYGYLNLWGPGTLVTVSS
VL: DVVMTQTPASVSGPVGGTVTIKCQASQNIDSDLAWYQQKPGQRPKLLIYDASKLASGVPSRFSGSGYGTEFTLTISGVQCEDAATYYCQYTYYINTYGGAFGGGTEVVVK

- EC50 [4]: 0.056 nM
- EC50 [5]: 0.072 nM
- EC50 [6]: 109 nM
B3: humanized antibody clone 37 (taken as h600_25_37) (antibody, V domains shown)
VH: EVQLVESGGGLVQPGGSLRLSCAASGIDLSNYAMGWVRQAPGKGLEWVGSRRTDGITYYANWAEGRFTISRDNSKNTLYLQMNSLRAEDTAVYYCGRDVGGEGGWYFNLWGQGTLVTVSS
VL: DIQMTQSPSTLSASVGDRVTITCQASQSINIYLAWYQQKPGKAPKLLIYDASKLASGVPSRFSGSGSGTEFTLTISSLQPDDFATYYCQQGINNIGFGGGTKVEIK

- EC50 [1]: 0.057 nM
- EC50 [2]: 0.073 nM
- binding result (soluble mouse TNFR2): no binding
- IC50 (TNFR-Fc): 0.741 nM
- EC50 [3]: 0.067 nM
B4: chimeric antibody clone 57 (rab600_23_57) (antibody, V domains shown)
VH: QSVEESGGRLVTPGTPLTLTCTVSGFSLSSYAMGWVRQAPGKGLEWIGIIGSGGNTYYATWAKGRFTISRTSTTVDLRITSPTTEDTATYFCARDVGYGDYDALDLWGQGTLVTVSS
VL: DVVMTQTPSSVSEPVGGTVTIKCQASEEISSNLAWYQQKPGQPPKLLMYAASNLASGVSSRLKGSRSGTDYTLTISGVQCDDAATYFCQCTYIGSGYVVAFGGGTEVVVK

- EC50 [1]: 0.0396 nM
- EC50 [2]: 0.17 nM
- binding result (soluble mouse TNFR2): no binding
- IC50 (TNFR-Fc): 6.09 nM
- EC50 [3]: 0.14 nM
B7: chimeric antibody clone 11D7.1 (rab600_23_11D7.1) (antibody, V domains shown)
VH: QEQLEESGGGLVQPGGSLKLSCKASGFDFSRYYMSWVRQAPGKGLEWIGYIDPIFGNTYYASWVNGRFTISSHNAQNTLYLQLNNLTAADTATYFCARDGDAGYDGYGYGTDLWGPGTLVTVSS
VL: QVLTQTPSSVSEPVGGTVTINCQASENIYSGLAWYQQKPGQPPKLLIVSAFTLASGVPSRFKGSGTGTEFTLTISGVQCDDAATYYCQTYYYGSVTYFNAFGGGTEVVVK
notes: also called rab600_23_HD7.1

- EC50 [1]: 0.099 nM
- EC50 [2]: 0.147 nM
- binding result (soluble mouse TNFR2): no binding
- IC50 (TNFR-Fc): 2.74 nM
- EC50 [3]: 0.094 nM
B8: chimeric antibody clone 4 (rab600_23_4) (antibody, V domains shown)
VH: QSVEESGGRLVTPGTPLTLTCTVSGIDLSSYTMGWVRQAPGKGLEYIGFISSSGHTYYANWAKGRFTISKTSSTTVDLKMTSLTTEDTATYFCARDGGYGGYDYTGIFNLWGQGTLVTVSS
VL: DIVMTQTASPVSAAVGGTVTIKCQATESISSWLAWYQQKPGQPPKLLIYGASTLESGVPSRFSGSGSGTEFTLTISGVQCDDAATYYCQQGYIYTNVDNTFGGGTEVVVK

- EC50 [1]: 0.315 nM
- EC50 [2]: 0.485 nM
- binding result (soluble mouse TNFR2): no binding
- IC50 (TNFR-Fc): 2.22 nM
- EC50 [3]: 0.325 nM
B9: chimeric antibody clone 107 (rab600_23_107) (antibody, V domains shown)
VH: QSVEESGGRLVTPGTPLTLTCTVSGFSLSSNAISWVRQAPGKGLEWIGIINTYDNTAYATWAKGRFSISRTSTTVDLKITSPATKDTATYFCARDVHNNVVPYYFDMWGQGTLVTVSS
VL: AYDMTQTPATVEVAVGGTVTINCQASQSISNLLAWYQQKPGQRPKLLIYDTSDLASGVPSRFSGSGSGTEYTLTITGVECADAATYYCQQGYSSSNIDNVFGGGTEVVVK

- EC50 [1]: 0.327 nM
- EC50 [2]: 0.18 nM
- binding result (soluble mouse TNFR2): no binding
- IC50 (TNFR-Fc): 4.55 nM
- EC50 [3]: 0.256 nM
B12: chimeric antibody clone 108 (taken as rab600_25_108) (antibody, V domains shown)
VH: QSVEESGGRLVTPGTPLTLTCKASGFSLSDYFMTWVRQAPGKGLEWIGIINTGGDSYYATWAKGRFTISKTSTTVDLKISSPTTEDTATYFCARDTGYGGYDYAGSFDPWGPGTLVTVSS
VL: AIKMTQTPASVSEPVGGTVTIKCQASENINSWLAWYQQKPGQPPKLLIYEASKLASGVPSRFKGSGSGTQFTLTISDLECADAATYYCQQGYIYIDVGNIFGGGTEVVVK
